Ten molecules from article PMC3641136 can be followed below.

The chains are these.
B1: neuronal glycine transporter 2 (GlyT2), wild type (natural protein)
chain: MDCSAPKEMNKPPTNILEATVPGHRDSPRAPRTSPEQDLPAAAPAAAVQPPRVPRSASTGAQTFQSADARACEAQRPGVGFCKLSSPQAQATSAALRDLSEGHSAQANPPSGAAGAGNALHCKIPALRGPEEDENVSVGKGTLEHNNTPAVGWVNMSQSTVVLGTDGIASVLPGSVATTTIPEDEQGDENKARGNWSSKLDFILSMVGYAVGLGNVWRFPYLAFQNGGGAFLIPYLMMLALAGLPIFFLEVSLGQFASQGPVSVWKAIPALQGCGIAMLIISVLIAIYYNVIICYTLFYLFASFVSVLPWGSCNNPWNTPECKDKTKLLLDSCVIGDHPKIQIKNSTFCMTAYPNLTMVNFTSQANKTFVSGSEEYFKYFVLKISAGIEYPGEIRWPLAFCLFLAWVIVYASLAKGIKTSGKVVYFTATFPYVVLVILLIRGVTLPGAGAGIWYFITPKWEKLTDATVWKDAATQIFFSLSAAWGGLITLSSYNKFHNNCYRDTLIVTCTNSATSIFAGFVIFSVIGFMANERKVNIENVADQGPGIAFVVYPEALTRLPLSPFWAIIFFLMLLTLGLDTMFATIETIVTSISDEFPKYLRTHKPVFTLGCCICFFIMGFPMITQGGIYMFQLVDTYAASYALVIIAIFELVGISYVYGLQRFCEDIEMMIGFQPNIFWKVCWAFVTPTILTFILCFSFYQWEPMTYGSYRYPNWSMVLGWLMLACSVIWIPIMFVIKMYLAPGRFIERLKLVCSPQPDWGPFLAQHRGERYKNMIDPLGTSSLGLKLPVKDLELGTQC
modifications: N-glycans on asparagines 345, 355, 360 and 366; the CNX-bound form is the 75 kDa under-glycosylated, EndoH-sensitive precursor

The first assay deals with calnexin (CNX), endogenous in COS7 cells (African green monkey (endogenous in COS7)). Nature of the assay: co-IP; COS7 cells pulse-labeled 15 min with [35S]methionine/cysteine and chased; sequential immunoprecipitation with anti-CNX, then anti-GlyT2 antibodies (1% CHAPS); SDS-PAGE, fluorography, densitometry; also after treatment of cells with tunicamycin, castanospermine, deoxynojirimycin, deoxymannojirimycin, kifunensin, or at 45°C.
Conditions: not given
For B1, the half-life of the complex (pulse-chase) was determined as 1 h.

A further assay concerns the target calnexin (CNX), endogenous in COS7 cells. As to the kind of experiment: sequential co-immunoprecipitation (CNX then GlyT2 antibodies), densitometry of fluorograms. The settings on record: 15 min [35S]methionine/cysteine pulse, 30 min chase, n = 3, parent: est. 100, read off a plot.
Regarding “neuronal glycine transporter 2 (GlyT2), wild type (from UniProt P58295) N345D; N355D; N360D; N366D”, the percent of parent is 74 % of wtGlyT2.
Still for that read-out and setting: the value for “neuronal glycine transporter 2 (GlyT2), wild type (from UniProt P58295) N1” was 69 % of wtGlyT2.
As for “neuronal glycine transporter 2 (GlyT2), wild type (from UniProt P58295) N2”, the percent of parent was 62 % of wtGlyT2.
Still for that read-out and setting: the value for “neuronal glycine transporter 2 (GlyT2), wild type (from UniProt P58295) N366D” was 51 % of wtGlyT2; that for “neuronal glycine transporter 2 (GlyT2), wild type (from UniProt P58295) N23” was 62 % of wtGlyT2; that for “neuronal glycine transporter 2 (GlyT2), wild type (from UniProt P58295) N13” was 85 % of wtGlyT2.
On to “neuronal glycine transporter 2 (GlyT2), wild type (from UniProt P58295) N234”, for which the percent of parent was 48 % of wtGlyT2.
For “neuronal glycine transporter 2 (GlyT2), wild type (from UniProt P58295) N123”, the percent of parent was 35 % of wtGlyT2.
For “neuronal glycine transporter 2 (GlyT2), wild type (from UniProt P58295) N3”, the percent of parent is 72 % of wtGlyT2.
